Test results published in patent CN106928350A (TIANJIN INST IND BIOTECHNOLOGY CAS; SUZHOU GENEWIZ …, dated 2017).

Key:
[1] = target: T1, HA of A/PuertoRico/8/1934 H1N1 (Influenza A virus A/PuertoRico/8/1934 …, UniProt P03452 18-565); assay: immunofluorescence on virus-infected MDCK cells
T1 construct: whole, on cells; also called PR8

[2] = target: T2, HA of H4 (A/duck/Czech/1956)/PR8 H4N1 (PR8-RS) (Influenza A virus A/duck/Czech/1956 (H4), UniProt P19696 17-564); assay: immunofluorescence on virus-infected MDCK cells, antibody 40μg/mL
T2 construct: whole, on cells

B1: AF4H1K1 (antibody, V domains shown)
VH: QVQLVESGGGVVQPGTSLRLSCEASGFTSSAYAMHWVRQAPGKGLEWVAVITFDGGYQYYADSVKGRFTISRDISRNTLHLHMNSLRAEDTAVYYCARDPLTKLLPFDWVSGGYFDYWGQGTLVTVSS
VL: not shown
notes: also called AF4H1K1 IgG; AF4H1K1IgG
- binding result [1]: no binding (tested: 40μg/mL)
- binding result [2]: binds
